Publication PMC8298602, “14-3-3-protein regulates Nedd4-2 by modulating interactions between HECT and WW domains” (Communications Biology, 2021)
Where a chain is given by its changes, count along the chain named.

T1: 14-3-3ζ (human, UniProt P63104 1-245)
T1 construct: 14-3-3 protein zeta, human
T1 sequence (looked up): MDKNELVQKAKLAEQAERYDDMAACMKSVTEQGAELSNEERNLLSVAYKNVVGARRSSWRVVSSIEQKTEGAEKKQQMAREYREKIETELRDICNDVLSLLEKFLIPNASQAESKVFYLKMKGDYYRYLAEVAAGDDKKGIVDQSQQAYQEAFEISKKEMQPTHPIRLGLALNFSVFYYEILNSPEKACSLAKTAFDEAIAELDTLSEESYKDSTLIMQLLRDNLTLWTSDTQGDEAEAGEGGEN

T2: 14-3-3ε (human, UniProt P62258 1-255)
T2 construct: 14-3-3 protein epsilon, human
T2 sequence (looked up): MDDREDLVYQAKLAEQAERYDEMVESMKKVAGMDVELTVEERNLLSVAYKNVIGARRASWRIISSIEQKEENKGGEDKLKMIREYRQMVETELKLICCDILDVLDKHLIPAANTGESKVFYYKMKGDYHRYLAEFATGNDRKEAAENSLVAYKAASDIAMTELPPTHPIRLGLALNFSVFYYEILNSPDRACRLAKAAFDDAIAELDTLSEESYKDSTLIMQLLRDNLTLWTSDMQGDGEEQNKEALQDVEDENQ

T3: 14-3-3γ (human, UniProt P61981 2-247)
T3 construct: 14-3-3 protein gamma, human
T3 sequence: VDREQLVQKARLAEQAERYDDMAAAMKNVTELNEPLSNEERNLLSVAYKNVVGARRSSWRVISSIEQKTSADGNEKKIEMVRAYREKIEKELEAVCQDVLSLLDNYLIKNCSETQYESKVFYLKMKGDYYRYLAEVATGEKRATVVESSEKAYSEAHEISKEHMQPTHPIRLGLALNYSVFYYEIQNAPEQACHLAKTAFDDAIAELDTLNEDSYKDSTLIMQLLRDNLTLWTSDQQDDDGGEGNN

T4: 14-3-3τ (human, UniProt P27348 1-245)
T4 construct: 14-3-3 protein tau (theta), human
T4 sequence (looked up): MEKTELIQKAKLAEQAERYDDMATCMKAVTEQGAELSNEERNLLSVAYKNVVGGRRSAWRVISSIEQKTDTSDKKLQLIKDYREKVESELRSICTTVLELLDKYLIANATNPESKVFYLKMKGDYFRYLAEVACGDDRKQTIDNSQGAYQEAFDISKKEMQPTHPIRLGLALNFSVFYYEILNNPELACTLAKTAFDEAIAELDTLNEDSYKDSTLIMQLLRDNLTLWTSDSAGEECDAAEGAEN

T5: 14-3-3σ (human, UniProt P31947 1-248)
T5 construct: 14-3-3 protein sigma, human
T5 sequence (looked up): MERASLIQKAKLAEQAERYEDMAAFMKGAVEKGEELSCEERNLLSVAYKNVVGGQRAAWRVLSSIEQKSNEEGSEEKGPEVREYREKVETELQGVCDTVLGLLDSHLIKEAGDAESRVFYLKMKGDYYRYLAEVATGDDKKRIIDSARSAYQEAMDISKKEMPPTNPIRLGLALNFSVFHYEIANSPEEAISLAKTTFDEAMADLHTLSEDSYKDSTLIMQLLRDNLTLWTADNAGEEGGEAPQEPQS

T6: 14-3-3β (human, UniProt P31946 1-246)
T6 construct: 14-3-3 protein beta, human
T6 sequence (looked up): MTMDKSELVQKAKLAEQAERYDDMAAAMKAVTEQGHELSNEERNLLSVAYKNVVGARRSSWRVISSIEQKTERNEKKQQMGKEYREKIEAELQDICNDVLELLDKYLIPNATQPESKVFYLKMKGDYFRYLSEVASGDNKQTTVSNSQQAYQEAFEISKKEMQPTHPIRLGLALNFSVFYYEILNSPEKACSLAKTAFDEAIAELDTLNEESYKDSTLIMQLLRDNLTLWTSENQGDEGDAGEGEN

B1: 14-3-3η (natural protein, human)
chain: MGDREQLLQRARLAEQAERYDDMASAMKAVTELNEPLSNEDRNLLSVAYKNVVGARRSSWRVISSIEQKTMADGNEKKLEKVKAYREKIEKELETVCNDVLSLLDKFLIKNCNDFQYESKVFYLKMKGDYYRYLAEVASGEKKNSVVEASEAAYKEAFEISKEQMQPTHPIRLGLALNFSVFYYEIQNAPEQACLLAKQAFDDAIAELDTLNEDSYKDSTLIMQLLRDNLTLWTSDQQDEEAGEGN
notes: 14-3-3 protein eta, human; also called 14-3-3 protein (eta isoform); 14-3-3η dimer
B2: phosphorylated Nedd4-2^335–455 (domain or fragment, human, UniProt Q96PU5 335-455, looked up)
chain: SSRLRSCSVTDAVAEQGHLPPPSAPAGRARSSTVTGGEEPTPSVAYVHTTPGLPSGWEERKDAKGRTYYVNHNNRTTTWTRPIMQLAEDGASGSATNSNNHLIEPQIRRPRSLSSPTVTLS
modifications: phosphoserine at 342, phosphothreonine at 367, phosphoserine at 448
notes: source: E. coli BL21 (DE3), purified (Chelating Sepharose, TEV cleavage, Superdex 75), phosphorylated by PKA in vitro; not shown: His6, N-terminal, cleaved; GB1 domain of protein G, N-terminal, cleaved
B3: Nedd^335-455pT367 + pS448 (domain or fragment, human, UniProt Q96PU5 335-455, looked up)
chain: B2 chain with S8A
modifications: phosphothreonine at 367, phosphoserine at 448
notes: as for B2
B4: Nedd^335-455pS342 (domain or fragment, human, UniProt Q96PU5 335-455, looked up)
chain: B2 chain with T33A, S114A
modifications: phosphoserine at 342
notes: as for B2
B5: Nedd^335-455pS448 (domain or fragment, human, UniProt Q96PU5 335-455, looked up)
chain: B2 chain with S8A, T33A
modifications: phosphoserine at 448
notes: also called pSer^448; source: E. coli BL21 (DE3), purified (Chelating Sepharose, TEV cleavage, Superdex 75), phosphorylated by PKA in vitro; not shown: His6, N-terminal, cleaved; GB1 domain of protein G, N-terminal, cleaved
B6: Nedd^335-455pT367 (domain or fragment, human, UniProt Q96PU5 335-455, looked up)
chain: B2 chain with S8A, S114A
modifications: phosphothreonine at 367
notes: as for B2
B7: Nedd^335-455pS342 + pS448 (domain or fragment, human, UniProt Q96PU5 335-455, looked up)
chain: B2 chain with T33A
modifications: phosphoserine at 342, phosphoserine at 448
notes: The same variant was used in native PAGE, SV-AUC and for the crystal with 14-3-3ηΔC; source: E. coli BL21 (DE3), purified (Chelating Sepharose, TEV cleavage, Superdex 75), phosphorylated by PKA in vitro; not shown: His6, N-terminal, cleaved; GB1 domain of protein G, N-terminal, cleaved
B8: Nedd^335-455pS342 + pT367 (domain or fragment, human, UniProt Q96PU5 335-455, looked up)
chain: B2 chain with S114A
modifications: phosphoserine at 342, phosphothreonine at 367
notes: as for B2

Legend:
[1] = biological target: the molecule itself; test: SEC-SAXS; Superdex 200 Increase 5/150 GL, 20 mM Tris-HCl pH 7.5, 150 mM NaCl, 1 mM TCEP, 3% glycerol, 293.15 K; loaded 2.2 mg/ml Nedd4-2^186–975, 2 mg/ml 14-3-3η, 8.9 mg/ml complex (1:2, 60 μM)
[2] = biological target: T1, 14-3-3ζ; test: native gel or EMSA; 12% native TBE-PAGE; 240 pmol of 14-3-3 and 120 pmol of the Nedd4-2 construct loaded; conditions: both partners purified
[3] = biological target: T2, 14-3-3ε; test: as above; conditions: both partners purified
[4] = biological target: T3, 14-3-3γ; test: as above; conditions: both partners purified
[5] = biological target: T4, 14-3-3τ; test: as above; conditions: both partners purified
[6] = biological target: T5, 14-3-3σ; test: as above; conditions: both partners purified
[7] = biological target: T6, 14-3-3β; test: as above; conditions: both partners purified
[8] = biological target: B1; test: AUC; sedimentation velocity, 20 °C, 20 mM Tris-HCl pH 7.5, 150 mM NaCl, 1 mM TCEP; 1 μM 14-3-3η with Nedd4-2^335–455 variants (0.05 – 5 μM); apparent KD, sw isotherm fitted with A + B ⇌ AB, 14-3-3η dimer + one Nedd4-2 molecule; conditions: both partners purified
[9] = biological target: B1; test: native gel or EMSA; 12% native TBE-PAGE; 240 pmol of 14-3-3 and 120 pmol of the Nedd4-2 construct loaded; conditions: both partners purified

B1
stoichiometry N [1]: 2

B2
binding result [2]: binds
binding result [3]: binds
binding result [4]: binds
binding result [5]: binds
binding result [6]: binds
binding result [7]: binds
Kd [8]: < 30 nM
stoichiometry N [8]: 2 14-3-3η protomers per Nedd4-2 protomer

B3
binding result [9]: binds

B4
Kd [8]: 400 ± 100 nM

B5
binding result [9]: binds

B6
Kd [8]: 530 ± 30 nM

B7
Kd [8]: < 30 nM

B8
binding result [9]: binds
